From the supplement of paper PMC9732359
± gives the uncertainty stated by the source.

Assay: protein stability index of a GFP-peptide fusion (yeast GPS) (PSI 1-4); higher = more stable; sorted into four equal gates, so the index is relative within each strain
Method in brief: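 Plasmids isolated from each sorting gate were PCR-amplified and Illumina-sequenced, and barcodes assigned the reads to strains. The gates, four of equal size, were set by GFP/Cherry fluorescence ratio on mid-log cultures in leucine-free medium. These cultures were yeast carrying a pooled library of tiled 17-residue yeast protein peptides fused downstream of GFP on a plasmid that also expresses Cherry. The protein stability index is the sum of every gate's read frequency times its gate number.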

| Sequence | protein stability index (doa10∆) | protein stability index (pdr5∆) | protein stability index (san1∆) | protein stability index (ubr1∆) |
| --- | --- | --- | --- | --- |
| VELLDSNDRVNPLIELT [ITC1] | 3.58 ± 0.11 | 2.5 ± 0.11 | 3.28 ± 0.075 | 3.02 ± 0.069 |
| VEVKDASLVDYVQVRQP [RPS5] | 2.9 ± 0.3 | 3.41 ± 0.17 |  | 1.18 ± 0.067 |
| VFHAAFEGDSNMLICAP [BRR2] | 2.25 ± 0.048 | 2.41 ± 0.042 | 2.33 ± 0.045 | 2.615 ± 0.026 |
| VFLSNLVETCLNDLVES [BRR2] | 1.41 ± 0.05 | 1.98 ± 0.04 | 1.57 ± 0.11 | 1.89 ± 0.039 |
| VFQAKMMDMLKQTGRDQ [RPN11] | 2.56 ± 0.061 | 2.58 ± 0.07 | 2.52 ± 0.077 | 2.96 ± 0.062 |
| VGCKNLERLTLVFCKHI [GRR1] | 1.52 ± 0.062 | 1.91 ± 0.077 | 1.25 ± 0.11 | 1.63 ± 0.084 |
| VGEMKLLKKKDDPSKVR [YLR335W/NUP2] | 3.29 ± 0.08 | 3.32 ± 0.15 | 2.98 ± 0.091 | 2.74 ± 0.16 |
| VGGHNVTIREQINIMPS [SIR3] | 2.91 ± 0.069 | 2.8 ± 0.066 | 2.71 ± 0.071 | 2.94 ± 0.067 |
| VGHLSILPQQSKLKLKN [ECM29] | 1.91 ± 0.16 | 2.31 ± 0.1 | 1.88 ± 0.13 | 2.5 ± 0.15 |
| VGIDTHTATDIYQTLIA [SNF2] | 2.12 ± 0.05 | 2.03 ± 0.048 | 1.85 ± 0.05 | 1.72 ± 0.028 |
| VGKFLGYVSSLVEPSKV [FAS1] | 1.71 ± 0.064 | 2.14 ± 0.072 | 1.69 ± 0.12 | 1.89 ± 0.052 |
| VGKRVPIVEDRRVKQLD [SIR4] |  |  |  | 3.35 ± 0.26 |
| VGKTVKQLIMESQEKYM [NSL1] | 3.17 ± 0.097 | 3.18 ± 0.073 | 2.8 ± 0.067 | 3.34 ± 0.055 |
| VGQAGRPKKITGWITQS [RPN1] | 1.99 ± 0.059 | 2.27 ± 0.075 | 2.21 ± 0.12 | 2 ± 0.044 |
| VGRRAANLRVLNSYWVN [RPL15A] | 1.97 ± 0.062 | 1.71 ± 0.072 | 1.91 ± 0.11 | 1.69 ± 0.07 |
| VGVENNGQYAAFVKDMQ [RPC37] | 3.21 ± 0.12 | 2.79 ± 0.15 | 3.19 ± 0.092 | 3.41 ± 0.1 |
| VGVNKDSYLILDTLPSE [RPT5] | 3.15 ± 0.069 | 3.18 ± 0.08 | 3.19 ± 0.078 | 3.14 ± 0.032 |
| VGVVFGSGAANENPYNN [COR1] | 3.24 ± 0.15 | 3.23 ± 0.088 | 3.21 ± 0.087 | 3.07 ± 0.12 |
| VHSSSPSTSSNMDVGNP [GAL11] | 2.89 ± 0.071 | 2.75 ± 0.066 | 2.69 ± 0.075 | 3.14 ± 0.054 |
| VIKRLEASTVPWGDYLQ [BRR2] | 1.63 ± 0.15 | 1.24 ± 0.11 | 1.54 ± 0.11 | 1.35 ± 0.11 |
| VITLLNNSSITLRCSVV [YCS4] | 2.04 ± 0.06 | 1.2 ± 0.062 | 1.21 ± 0.12 | 1.16 ± 0.051 |
| VIVELLPQSEWKAPSSI [DIS3] | 2.79 ± 0.071 | 2.57 ± 0.062 | 2.02 ± 0.062 | 2.1 ± 0.048 |
| VIWELDDSANIVNVNFM [DIS3] | 2.96 ± 0.049 | 2.85 ± 0.057 | 3.21 ± 0.042 | 2.99 ± 0.045 |
| VKLLKTTVPIVSKKRQK [POP3] | 3.2 ± 0.1 | 2.95 ± 0.069 | 2.87 ± 0.083 | 2.74 ± 0.07 |
| VKLPRAFIDERASDLRM [RRP43] |  | 1.68 ± 0.26 |  | 1.69 ± 0.16 |
| VKMLRDNPGYKASKEIK [SIR3] | 3.08 ± 0.17 | 3.38 ± 0.19 |  | 3.15 ± 0.11 |

| Sequence | protein stability index (doa10∆) | protein stability index (pdr5∆) | protein stability index (san1∆) | protein stability index (ubr1∆) |
| --- | --- | --- | --- | --- |
| VKPLESSAKRSKNTAVS [SRP72] | 2.7 ± 0.073 | 2.92 ± 0.11 | 2.21 ± 0.096 | 2.63 ± 0.05 |
| VKQEDMPFNDQGIVPDI [RET1] | 2.86 ± 0.084 | 3.06 ± 0.059 | 2.91 ± 0.064 | 3.17 ± 0.043 |
| VKSLLSEEKIRDYSKEI [SIR4] | 3.14 ± 0.3 | 2.48 ± 0.14 | 2.46 ± 0.14 |  |
| VKTPKKTKYILQRPTAT [CSN12] | 2.89 ± 0.069 | 3.03 ± 0.076 | 2.6 ± 0.079 | 2.43 ± 0.21 |
| VKVLAATNRVDVLDPAL [RPT5] | 3.08 ± 0.099 | 2.84 ± 0.1 | 3.02 ± 0.075 | 2.89 ± 0.071 |
| VLAHRIGLVPLKVDPDM [RPC40] | 2.94 ± 0.27 |  |  |  |
| VLAKRMANLSQIYTQRA [SCL1] | 2.52 ± 0.12 | 3 ± 0.27 | 2.34 ± 0.12 | 2.69 ± 0.091 |
| VLARISPELSLQRHLSL [RRP43] | 2.47 ± 0.054 | 2.04 ± 0.072 | 2.02 ± 0.093 | 2.47 ± 0.05 |
| VLESIVARTFWASKYGQ [BRR2] | 2.74 ± 0.063 | 2.37 ± 0.062 | 2.47 ± 0.096 | 2.61 ± 0.067 |
| VLHVSAKGKSGVQTAYI [RRP40] | 2.48 ± 0.23 |  |  | 2.91 ± 0.24 |
| VLIANDVDPIELVVFLP [RPL8A] | 2.42 ± 0.24 | 2.85 ± 0.077 | 3.13 ± 0.087 | 3 ± 0.058 |
| VLIAQERSAGNIVQVFK [RPB2] | 2.85 ± 0.13 | 3.39 ± 0.23 | 2.97 ± 0.087 | 3.11 ± 0.064 |
| VLIKMVKMLRDNPGYKA [SIR3] | 3.34 ± 0.077 | 3.47 ± 0.068 | 3.47 ± 0.039 | 3.33 ± 0.036 |
| VLITDHIEKLENEFVVL [CDC53] | 3.05 ± 0.061 | 2.61 ± 0.055 | 2.1 ± 0.087 | 2.58 ± 0.054 |
| VLITSYEMVIREKNALK [ISW2] | 2.33 ± 0.043 | 2.53 ± 0.053 | 2.37 ± 0.045 | 2.78 ± 0.043 |
| VLKFLTDLEKKHLWDQK [RPC17] | 3.14 ± 0.24 | 3.41 ± 0.16 | 3.18 ± 0.14 | 3.47 ± 0.14 |
| VLLHGASLGIGLAAMGS [RPN2] | 1.82 ± 0.071 | 1.9 ± 0.069 | 1.93 ± 0.072 | 1.56 ± 0.065 |
| VLMETKNTQSPQTPLVE [SNU114] | 2.95 ± 0.16 | 2.93 ± 0.12 | 2.67 ± 0.087 | 2.96 ± 0.11 |
| VLMGKNTMVRRAIRGFL [RPP0] | 3.27 ± 0.26 |  | 3.34 ± 0.17 |  |
| VLQNVFKLVSTPSSNSN [MED1] | 1.44 ± 0.04 | 1.67 ± 0.041 | 1.5 ± 0.072 | 1.36 ± 0.038 |
| VLTYPEKVTRYNRHKLQ [RPO31] | 2.1 ± 0.055 | 1.6 ± 0.048 | 2.32 ± 0.052 | 1.43 ± 0.05 |
| VMKDIYKVENVTLYWNN [ESC2] | 1.42 ± 0.088 | 1.62 ± 0.08 | 1.47 ± 0.11 | 1.73 ± 0.084 |
| VMNKNQETAISVAKLFK [RPT6] | 2.24 ± 0.19 | 1.72 ± 0.19 |  |  |
| VMSIESLVEVVFYRGMT [FAS1] | 1.89 ± 0.1 | 2.12 ± 0.06 | 1.39 ± 0.12 | 2.66 ± 0.097 |
| VNDRYQIPTPNNTVDPG [CSI1] | 1.44 ± 0.059 | 1.71 ± 0.075 | 1.71 ± 0.13 | 1.55 ± 0.048 |
